The supplement of paper PMC9112550, “Optimization of the antimicrobial peptide Bac7 by deep mutational scanning” (BMC Biology, 2022)
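Note: peptides expressed intracellularly from a pBAD plasmid library in pooled LB shake-flask culture, induced with 0.3% L-arabinose, DNA abundance read by NGS, three biological replicates, DESeq2 with apeglm shrinkage.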

Each sequence was assayed on Escherichia coli TOP10 (assay: shrunken log2 fold change of peptide-encoding DNA abundance (4.5 h post-induction vs induction); higher = less antimicrobial activity (less host growth inhibition)). Details: time post-induction: 4.5 h; library: site-saturation at positions 5, 18, 19, 20.
In the case of RRIRLRPPRLPRPRPRPNLAPRP, the “shrunken log2 fold change” value is reported as -0.0506. With RRIRCRPPRLPRPRPRPYTCPRP the “shrunken log2 fold change” value was -0.794. In the case of RRIRERPPRLPRPRPRPMFFPRP, the “shrunken log2 fold change” value is reported as -0.0867. RRIRDRPPRLPRPRPRPMMCPRP was tested, and the “shrunken log2 fold change” value was -0.131. With RRIRCRPPRLPRPRPRPKNFPRP the “shrunken log2 fold change” value was -0.555. With RRIRRRPPRLPRPRPRPNGQPRP the “shrunken log2 fold change” value was -0.00184. RRIRLRPPRLPRPRPRPVCMPRP was tested, and the “shrunken log2 fold change” value was -0.246. With RRIRDRPPRLPRPRPRPWPYPRP the “shrunken log2 fold change” value was -0.0943. For RRIRLRPPRLPRPRPRPPTHPRP, the “shrunken log2 fold change” value was 0.147. In the case of RRIRVRPPRLPRPRPRPICDPRP, the “shrunken log2 fold change” value is reported as -0.0949. For RRIRKRPPRLPRPRPRPGAHPRP, the “shrunken log2 fold change” value was 0.663. In the case of RRIRNRPPRLPRPRPRPEVVPRP, the “shrunken log2 fold change” value is reported as -0.252. RRIRERPPRLPRPRPRPMNYPRP was tested, and the “shrunken log2 fold change” value was -0.981. With RRIRKRPPRLPRPRPRPDNRPRP the “shrunken log2 fold change” value was 0.00592. RRIRYRPPRLPRPRPRPKMEPRP was tested, and the “shrunken log2 fold change” value was -0.529. RRIRTRPPRLPRPRPRPAHWPRP was tested, and the “shrunken log2 fold change” value was 0.882. In the case of RRIRCRPPRLPRPRPRPQDGPRP, the “shrunken log2 fold change” value is reported as 0.143. In the case of RRIRERPPRLPRPRPRPPIWPRP, the “shrunken log2 fold change” value is reported as -0.0729. In the case of RRIRKRPPRLPRPRPRPISCPRP, the “shrunken log2 fold change” value is reported as 0.0993. RRIRLRPPRLPRPRPRPWEEPRP was tested, and the “shrunken log2 fold change” value was -0.0678. For RRIRRRPPRLPRPRPRPMEAPRP, the “shrunken log2 fold change” value was 0.0829. RRIRHRPPRLPRPRPRPQMFPRP was tested, and the “shrunken log2 fold change” value was -0.0824. With RRIRPRPPRLPRPRPRPHTCPRP the “shrunken log2 fold change” value was -0.123. In the case of RRIRGRPPRLPRPRPRPPLCPRP, the “shrunken log2 fold change” value is reported as 0.616. With RRIRPRPPRLPRPRPRPWVRPRP the “shrunken log2 fold change” value was 0.113. With RRIRSRPPRLPRPRPRPFCFPRP the “shrunken log2 fold change” value was -0.069. In the case of RRIRRRPPRLPRPRPRPSTVPRP, the “shrunken log2 fold change” value is reported as -0.117. With RRIRERPPRLPRPRPRPHNDPRP the “shrunken log2 fold change” value was -0.335. With RRIRNRPPRLPRPRPRPSWGPRP the “shrunken log2 fold change” value was -0.139. In the case of RRIRARPPRLPRPRPRPEWWPRP, the “shrunken log2 fold change” value is reported as 0.945. For RRIRARPPRLPRPRPRPHTFPRP, the “shrunken log2 fold change” value was -0.314. For RRIRNRPPRLPRPRPRPMRHPRP, the “shrunken log2 fold change” value was -0.18. For RRIRKRPPRLPRPRPRPSHMPRP, the “shrunken log2 fold change” value was -0.0291. In the case of RRIRLRPPRLPRPRPRPLEQPRP, the “shrunken log2 fold change” value is reported as 0.0155. With RRIRNRPPRLPRPRPRPNQFPRP the “shrunken log2 fold change” value was -0.376. With RRIRERPPRLPRPRPRPRKLPRP the “shrunken log2 fold change” value was -0.0356. For RRIRVRPPRLPRPRPRPRMGPRP, the “shrunken log2 fold change” value was 1.86. RRIRHRPPRLPRPRPRPRTSPRP was tested, and the “shrunken log2 fold change” value was 0.245. RRIRIRPPRLPRPRPRPLGAPRP was tested, and the “shrunken log2 fold change” value was 0.241. RRIRMRPPRLPRPRPRPFYWPRP was tested, and the “shrunken log2 fold change” value was 0.086. RRIRARPPRLPRPRPRPIFLPRP was tested, and the “shrunken log2 fold change” value was -0.0119. For RRIRERPPRLPRPRPRPHAMPRP, the “shrunken log2 fold change” value was 0.0454. With RRIRDRPPRLPRPRPRPFRKPRP the “shrunken log2 fold change” value was -0.0314. For RRIRSRPPRLPRPRPRPKMQPRP, the “shrunken log2 fold change” value was 0.055. RRIRWRPPRLPRPRPRPPMTPRP was tested, and the “shrunken log2 fold change” value was 0.257. For RRIRLRPPRLPRPRPRPHRPPRP, the “shrunken log2 fold change” value was -0.189. In the case of RRIRYRPPRLPRPRPRPWFLPRP, the “shrunken log2 fold change” value is reported as -1.18. In the case of RRIRNRPPRLPRPRPRPNLLPRP, the “shrunken log2 fold change” value is reported as -0.112. With RRIRGRPPRLPRPRPRPCWFPRP the “shrunken log2 fold change” value was 0.584. RRIRNRPPRLPRPRPRPDHAPRP was tested, and the “shrunken log2 fold change” value was -0.0118. In the case of RRIRNRPPRLPRPRPRPYRCPRP, the “shrunken log2 fold change” value is reported as -0.153. For RRIRERPPRLPRPRPRPPLVPRP, the “shrunken log2 fold change” value was -0.0197. In the case of RRIRDRPPRLPRPRPRPRQEPRP, the “shrunken log2 fold change” value is reported as 0.0935. With RRIRKRPPRLPRPRPRPRRYPRP the “shrunken log2 fold change” value was 0.47. In the case of RRIRHRPPRLPRPRPRPPYAPRP, the “shrunken log2 fold change” value is reported as -0.00375. For RRIRRRPPRLPRPRPRPTEKPRP, the “shrunken log2 fold change” value was 0.155. RRIRHRPPRLPRPRPRPKMRPRP was tested, and the “shrunken log2 fold change” value was 0.312. With RRIRYRPPRLPRPRPRPKQHPRP the “shrunken log2 fold change” value was -0.304. With RRIRIRPPRLPRPRPRPLMGPRP the “shrunken log2 fold change” value was -0.166. RRIRVRPPRLPRPRPRPANMPRP was tested, and the “shrunken log2 fold change” value was 0.00908. RRIRGRPPRLPRPRPRPYDCPRP was tested, and the “shrunken log2 fold change” value was -0.147. In the case of RRIRQRPPRLPRPRPRPKQHPRP, the “shrunken log2 fold change” value is reported as -0.239. For RRIRTRPPRLPRPRPRPQTQPRP, the “shrunken log2 fold change” value was -0.0967. In the case of RRIRIRPPRLPRPRPRPELQPRP, the “shrunken log2 fold change” value is reported as -0.0107. For RRIRLRPPRLPRPRPRPLSIPRP, the “shrunken log2 fold change” value was -0.722. For RRIRPRPPRLPRPRPRPCSWPRP, the “shrunken log2 fold change” value was 0.0726. For RRIRCRPPRLPRPRPRPQVQPRP, the “shrunken log2 fold change” value was 0.0244. In the case of RRIRERPPRLPRPRPRPCKDPRP, the “shrunken log2 fold change” value is reported as -0.117. For RRIRLRPPRLPRPRPRPYDLPRP, the “shrunken log2 fold change” value was -0.0724. With RRIRTRPPRLPRPRPRPELIPRP the “shrunken log2 fold change” value was -0.0864. In the case of RRIRNRPPRLPRPRPRPVFQPRP, the “shrunken log2 fold change” value is reported as -0.623. For RRIRDRPPRLPRPRPRPLNIPRP, the “shrunken log2 fold change” value was -0.161. For RRIRWRPPRLPRPRPRPSILPRP, the “shrunken log2 fold change” value was -0.341. With RRIRMRPPRLPRPRPRPVEGPRP the “shrunken log2 fold change” value was -0.000687. With RRIRVRPPRLPRPRPRPCIDPRP the “shrunken log2 fold change” value was -0.106.
